From article PMC11879458

Tests used:
Assay in all cases: EMSA
[1] = biological target: ADR-2 (Caenorhabditis elegans, UniProt Q22618 1-495)
[2] = biological target: ADR-2 (ΔdsRBD);ADBP-1 (Δ1-66 aa) (Caenorhabditis elegans;Caenorhabditis …, UniProt Q22618;G5EDW1 1-35+106-495;67-217, internal_change|del1-66)
[3] = biological target: ADR-2;ADBP-1 (Caenorhabditis elegans;Caenorhabditis …, UniProt Q22618;G5EDW1 1-495;1-217, |)

B1: FAM-dsRNA 21 bp (dsRNA)
RNA 1: AAGGAUUACUGUAGUUUUCGC
RNA 2: GCGAAAACUACAGUAAUCCUU
binding result [1]: binds | binding result [2]: no binding | binding result [3]: binds
